# Values joined by “and” are separate entries in the source; they are usually repeats but may differ in a detail not shown here. Identical values can stand only once.
# Tests used:
# [1] = target: KgpcatΔABM1 (enriched fraction from P. gingivalis mutant ECR368) (Porphyromonas gingivalis) (UniProt Q51817); assay: cell-based or functional assay
# [2] = target: KgpcatΔABM1 (enriched fraction from P. gingivalis mutant ECR368) (Porphyromonas gingivalis) (UniProt Q51817); assay: enzyme inhibition kinetics (non-competitive, Ki′), chromogenic substrate GPKNa, secondary plot of Vmax observed against inhibitor concentration
Substance,% Proteolytic Activity (GPKNa; inhibitor 50 mg/L) [1] [%],"inhibition of KgpcatΔABM1 activity, chromogenic substrate GPKNa [1]","inhibition of KgpcatΔABM1 enriched fraction activity, fluorescent BSA substrate (DQ BSA), 2 h [1] [%]",Ki [2] [µM]
recombinant RgpB propeptide (from UniProt P95493 25-229),118,,,
recombinant Kgp propeptide (from UniProt Q51817 25-1732),,75% and 60%,66,2.01
